Tested on: MS2 coat protein
Test: apparent KD of MS2 coat protein; designed switch direction (-1 OFF switch, 1 ON switch): 1; higher = weaker reporter binding
In short: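 Normalised cluster fluorescence was curve-fitted, and each design's median over clusters is its apparent KD. Before this, SNAP-549-labelled MS2 coat protein was titrated from 0.7 or 1.5 nM, doubling to 3 µM, over RNA switches transcribed on Illumina chips by stalled E. coli RNA polymerase. Titrations had no input, 200 uM small-molecule ligand, or an oligonucleotide input, and steps lasted 0.8–1.5 h (lowest) to 10–20 min (highest).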

[1] = input ligand: microRNA oligo, concentration not stated
[2] = Eterna round: R95, input ligand: microRNA oligo, concentration not stated
[3] = Eterna round: R95, input ligand: FMN 200 uM
[4] = Eterna round: R95, input ligand: none

Sequence	apparent KD of MS2 coat protein (input ligand: FMN 200 uM) [nM]	apparent KD of MS2 coat protein [1] [nM]	apparent KD of MS2 coat protein (input ligand: none) [nM]	apparent KD of MS2 coat protein [2] [nM]	apparent KD of MS2 coat protein [3] [nM]	apparent KD of MS2 coat protein [4] [nM]
GGCCUGAGUCAAGGAUAUGCUACCGUUUCGGUAGCAGAAGGUGAUCACAUGAGGAUCACCCAUGUUUACGGGAAGACCCGCGCC (Eterna round: R96, puzzle: Same State NG 1)	1470	141	489	–	–	–
CUACAGGCCAGAGGAUAUGGGAAAGGAAGUGUACCAGAAGGUUGGCCUCCUGAGUACAUGAGGAUCACCCAUGUAGAAAGGCGA [PowerStrip SSNG 1.6] (Eterna round: R96, puzzle: Same State NG 1)	143	41.6	79.9	–	–	–
CUUUUUAAUGCAGGAUAUGAUCAACAUGAGGAUCACCCAUGUGGCGUUGUGAGUAGGGAGAGUGAUCAGAAGGGCAUCUCCUCG [SS-NG2-LRO08] (Eterna round: R96, puzzle: Same State NG 2)	68	45.1	62.4	–	–	–
GGUAGGUUACUACCAAACUACAUGAGGAUCACCCAUGUGUGGAAGGAUAUGGUACCUAUUUGGUACCAGAAGGUCCAAUUAAUU [Fiskers NG3ss - 5] (Eterna round: R96, puzzle: Same State NG 3)	125	108	122	–	–	–
GCCGCGUUUCGCGCCUACAUGAGGAUCACCCAUGUUUGUAGGCAGGAUAUCGUUUGCUUUGCAACCGAGAAGGGCUGUUGUGGC [salish99_SSNG3_R04_013] (Eterna round: R96, puzzle: Same State NG 3)	51.6	38.4	55.5	–	–	–
AGAUGUUAAUCAGGAUAUGGGCACAUGAGGAUCACCCAUGUAAAUUCGAUACUAUGUGGACACGUCUAGAAGGGAUGGCUAACA [SameState NG2 #83] (Eterna round: R96, puzzle: Same State NG 2)	125	73.5	106	–	–	–
CGACACACGGCAGGAUAUGCUUAGCAAAGCUAAGCAGAAGGGCCUCAUGUCGUGGAAACCUGACAUGAGGAUCACCCAUGUCGG [Omei SS(NG)1 Cv3] (Eterna round: R96, puzzle: Same State NG 1)	23.8	11.6	37.6	–	–	–
GGUAGGUUACUACCAGACAUGAGGAUCACCCAUGUAAAUGGGAAGGAUAUGGUACCGUUUCGGUACCAGAAGGUCCUAAAUGAG [JL SSNG3 1.47] (Eterna round: R96, puzzle: Same State NG 3)	301	644	1750	–	–	–
AGAUCAUGACGAGGAUAUGGUACAUGAGGAUCACCCAUGUAUGUACCAUAGCAACAGCUAGGAAACCAGAAGGCGUCGUGGUCA [jandersonlee JLSSNG2 1.18 Native F5 + F7] (Eterna round: R96, puzzle: Same State NG 2)	13.6	15.6	26.6	–	–	–
UUAAUUUACUGAGGAUAUCGUGUCGACUGAGUUGACAUGAGGAUCACCCAUGUGUGAAGUGGUAUCGAGAAGGCAGUUUUCUUA [JR_SSNG2_Sub026] (Eterna round: R96, puzzle: Same State NG 2)	19	76.9	122	–	–	–
GCCGGCUGGUGAGGAUAUGGCACCUUAUUGGUGCCAGAAGGCAUGUCAAUUGACAUGAGGAUCACCCAUGUAUUAUAGUUGGCG [salish99_SSNG1_r04_605] (Eterna round: R96, puzzle: Same State NG 1)	414	69.3	56.1	–	–	–
AAAGAAACUACAGGAUAUGCGUGGGAAAGAUAGGCAGAAGGGUGGAUAAUAAAUUCCAGCACAUGAGGAUCACCCAUGUACUGG [Ince] (Eterna round: R96, puzzle: Same State NG 1)	17	15.6	22.7	–	–	–
GCUCGACGUAUUGUUUACAUGAGGAUCACCCAUGUAGGUGCGGAGGAUAUCUACGUGUUUCAUGUAGAGAAGGUCGUGUCGAGC [SameState NG3 #91] (Eterna round: R96, puzzle: Same State NG 3)	24.5	59.2	106	–	–	–
AUUUUUAAUGCAGGAUAUGAUUAACAUGAGGAUCACCCAUGUGGUGUUGUGAGUAAGGAGAGUGAUCAGAAGGGCAUUUUUAUU [JMF's solution 84] (Eterna round: R96, puzzle: Same State NG 2)	1180	450	615	–	–	–
UAUUUAAUCAUAGGAUAUAGUGUGUAAUUUGGACUAGAAGGAUGAAACAUGAGGAUCACCCAUGUGGUAAAUGGGAUACAUUCC [JR_SSNG1_Sub100] (Eterna round: R96, puzzle: Same State NG 1)	–	59.8	–	–	–	–
AAACGGCCCAACGGAGGGCCACAUGAGGAUCACCCAUGUACAUAGGAUAUCACGCCAACGAGGCGUGAGAAGGGUGAUUAAAAC [Bisomaor] (Eterna round: R96, puzzle: Same State NG 3)	28.8	8.11	73.5	–	–	–
UUUGGGUGGCUGGAGGAUAUUCUUGUGGUUACAUGAGGAUCACCCAUGUGUCGCGCGGUACGCGAGGAGAAGGCUGGCGGCCGUU (puzzle: Same State 2)	–	–	–	223	–	–
GAGUGGUAGAGAGGAUAUGCAUUGUUAUUCACUGUAGAAGGUUUUAACAUGAGGAUCACCCAUGUAGGACUAUUCCUGUGUUUU [Parity 62 - Jieux - Same State NG 1] (Eterna round: R96, puzzle: Same State NG 1)	16.3	13.3	18.4	–	–	–
AUUUGGUAACGAGGAUAUCGUUUUUGUUUUCUUCGAGAAGGCGUUAUUGUUUAUUUCUAUUGUUACAUGAGGAUCACCCAUGUU [JR_SSNG1_Sub056] (Eterna round: R96, puzzle: Same State NG 1)	15.4	19	21.7	–	–	–
GCUAGUAUAAUUGUCAACAUGAGGAUCACCCAUGUAUGUUGGCAGGAUAUCGUUUGCAAAGCAAACGAGAAGGGCUAAACUAGC [Mat - Same State NG 3 - JL Mod - D11] (Eterna round: R96, puzzle: Same State NG 3)	61.3	106	171	–	–	–
GGCGGAUCCACAUGAGGAUCACCCAUGUAGCGGAGACGCAAUGAGGAUAUCGAUGGGUUUCCCGUCGAGAAGGCAUAAACCGCC [JL SSNG3 3.93 mod 2] (Eterna round: R96, puzzle: Same State NG 3)	17.8	14.9	16	–	–	–
ACAUGAGAAUUAGGAUAUAUAGUACCUACAUGUGACAUGAGGAUCACCCAUGUGGUAAGUAUGACAUAGAAGGAAUAGAUAUGU [Equivalance 97 - Jieux - Same State NG 2] (Eterna round: R96, puzzle: Same State NG 2)	66.5	42.9	56.8	–	–	–
GAGGAGGAUACAGGAUAUAUACAUGAGGAUCACACAUACAUGACAUGAGGAUCACCCAUGUUUGUAUAGAAGGGUAAGAGGAGG [Seems to be working] (Eterna round: R96, puzzle: Same State NG 2)	51.2	24.2	66.1	–	–	–
GGAUAACAUGAGGAUCACCCAUGUCAACAAAGUCGAGGAUAUGGGCAAUUAUAAUUAGAACCAGAAGGCGAAUAGG [Mat - Same State 1 - Mod of UCT - D44] (puzzle: Same State 1)	–	–	–	126	55.9	191
AGAUAAGUCACAGGAUAUUCCUACAUUAAUAUGGAAGAAGGGUGAGCAUGAUUCGAUACAUGAGGAUCACCCAUGUAUCCGCGA [Eternabot solution 31] (Eterna round: R96, puzzle: Same State NG 1)	–	54	–	–	–	–
CCGGUUUAUGGAGGAUAUGGAGCCUUAUUGGCUCCAGAAGGCUAAUAACAUGAGGAUCACCCAUGUCGGCGGUCUAAUGACCGA [Eli NG1ss - 56] (Eterna round: R96, puzzle: Same State NG 1)	–	21.8	–	–	–	–
UGGAUCUAGGCUUGCCUGGGUCCUUGUUGACAUGAGGAUCACCCAUGUGUUUUUUUUUUGCUUUUUGUUUGUCAACA [JL A Humble Attempt mod 1] (puzzle: Sensor for hsa-mir-208a)	–	–	–	13.6	20.8	26.1
CCAAUGUACAAUUUAGAUCUACAUGAGGAUCACCCAUGUACAGAGGAUAUCAGCUCGAUUAGAGCUGAGAAGGCUGAAUUAAUU [SSNG3/3-A2] (Eterna round: R96, puzzle: Same State NG 3)	137	135	266	–	–	–
GGUCCAGCCUGAGCUGGACAAAAGCAUGUACAUGAGGAUCACCCAUGUCAUGUACAGGCUUUUUGCUCGUCUUAAAA [JL mod - D87 - 7] (puzzle: Sensor for hsa-mir-208a)	–	–	–	16.1	622	825
UUGAAGAAUAUAGGAUAUUGAAUACAUAUGUUUAACAUGAGGAUCACCCAUGUGGGUUGCGGUAUCGAGAAGGAUAAUUACUAG [Mat - Same State NG 2 - JL mod - D12] (Eterna round: R96, puzzle: Same State NG 2)	185	131	140	–	–	–
